Reference: US20230131339A1, “EPI-X4 BASED PEPTIDES AND DERIVATIVES THEREOF” (Universitaet Ulm, priority 2020, published 2023)
Values joined by “and” are separate entries in the source; they are usually repeats but may differ in a detail not shown here. Equal values may be shown once. Where no end group is shown, it is not given here. Side-chain parts run from the residue outwards. [ ]: non-standard residue; d: D form. The star is where a group is joined. Palmitoyl = CCCCCCCCCCCCCCCC(=O)*; Myristoyl = CCCCCCCCCCCCCC(=O)*; Glu = glutamate linker; Chl = cholesterol

B1: JM#17 (peptide)
peptide: IMRWSRKMPCVS
B2: JM#192 (peptide)
peptide: ILRWSRK-NH2
modifications: not fully specified (residue 7)
B3: JM#237 (peptide)
peptide: [dI]LRWSRK(Palmitoyl)-NH2
B4: SC024 (peptide)
peptide: ILRWSRKLPCVS
modifications: also: coupled to PEG 20 kDa, site not given here
B5: JM#261 (peptide)
peptide: [dL]LRWSRK(Myristoyl)-NH2
modifications: N-terminus assumed
SMILES: CCCCCCCCCCCCCC(=O)NCCCC[C@H](NC(=O)[C@H](CCCNC(=N)N)NC(=O)[C@H](CO)NC(=O)[C@H](Cc1c[nH]c2ccccc12)NC(=O)[C@H](CCCNC(=N)N)NC(=O)[C@H](CC(C)C)NC(=O)[C@H](N)CC(C)C)C(N)=O
B6: JM#185 (peptide)
peptide: Ac-ILRWSRKLPCVS
B7: JM#22 (peptide)
peptide: ILRWSRKFPCVS
B8: SEQ ID NO.: 163 (peptide)
peptide: ILRWSRK([Glu-Palmitoyl])LPSVS
B9: JM#189 (peptide)
peptide: VLRWSRKLPCVS
B10: JM#13 (peptide)
peptide: ILRWSRKMPCVS
B11: JM#184 (peptide)
peptide: ILRWSRK(Chl)LPCVS
B12: JM#19 (peptide)
peptide: ILRWSRKMPCFS
B13: JM#18 (peptide)
peptide: ILRWSRKMPCLS
B14: SC033 (peptide)
peptide: ILRWSRKLPCVS
modifications: also: PEG-coupled, average 5 kDa
B15: SC029 (peptide)
peptide: ILRWSRKLPCVS
modifications: also: peptide copies coupled to the two different ends of PEG 20 kDa
B16: JM#236 (peptide)
peptide: [dL]LRWSRK(Palmitoyl)-NH2
modifications: N-terminus assumed
SMILES: CCCCCCCCCCCCCCCC(=O)NCCCC[C@H](NC(=O)[C@H](CCCNC(=N)N)NC(=O)[C@H](CO)NC(=O)[C@H](Cc1c[nH]c2ccccc12)NC(=O)[C@H](CCCNC(=N)N)NC(=O)[C@H](CC(C)C)NC(=O)[C@H](N)CC(C)C)C(N)=O
B17: JM#215 (peptide)
peptide: ILRWSRK(Dec)LPCVS
B18: JM#204 (peptide)
peptide: ILRWSRKLPCVS
modifications: not fully specified (residue 7)
B19: JM#20 (peptide)
peptide: ILRWSRKMPCMS

Target: CXC chemokine receptor type 4 (CXCR4) (human, UniProt P61073 1-352)
Assay: cell-based or functional assay

Chain of CXC chemokine receptor type 4 (CXCR4) (P61073 whole entry): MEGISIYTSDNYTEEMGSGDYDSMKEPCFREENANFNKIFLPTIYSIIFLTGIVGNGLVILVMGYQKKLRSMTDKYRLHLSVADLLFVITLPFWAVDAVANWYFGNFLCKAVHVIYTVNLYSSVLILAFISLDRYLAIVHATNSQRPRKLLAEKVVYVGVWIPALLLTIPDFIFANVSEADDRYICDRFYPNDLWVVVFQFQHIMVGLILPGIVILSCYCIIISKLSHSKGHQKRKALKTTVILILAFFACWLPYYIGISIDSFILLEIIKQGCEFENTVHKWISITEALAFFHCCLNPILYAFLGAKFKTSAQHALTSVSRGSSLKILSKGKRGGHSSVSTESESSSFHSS

| Binder | IC50, X4-HIV-1 inhibition assay | IC50, HIV inhibition assay | also measured |
| --- | --- | --- | --- |
| B1 | < 5 nM |  |  |
| B2 | < 5 nM and 2 nM |  |  |
| B3 |  | > 150 nM |  |
| B4 |  |  | IC50, HIV-1 inhibition assay: 118 nM |
| B5 |  | > 150 nM |  |
| B6 |  | > 150 nM |  |
| B7 | < 5 nM |  |  |
| B8 |  | > 150 nM |  |
| B9 |  | > 150 nM |  |
| B10 | < 5 nM |  |  |
| B11 |  | > 150 nM |  |
| B12 |  | 5 to 10 nM |  |
| B13 | < 5 nM |  |  |
| B14 |  |  | IC50, HIV-1 inhibition assay: 716 nM |
| B15 |  |  | IC50, HIV-1 inhibition assay: 98 nM |
| B16 |  | > 150 nM |  |
| B17 |  | > 150 nM |  |
| B18 |  | > 150 nM |  |
| B19 | < 5 nM |  |  |
